Source: patent US20060234294A1 (JAPAN SCIENCE AND TECHNOLOGY AGENCY, published 2006)

Columns and labels:
Assay in all cases: co-immunoprecipitation from 293T cells: anti-HA IP, anti-V5 Western blot
[1] = biological target: T1, full length DOCK2 with HA tag at the C terminus (PcDNA DOCK2-HA) (mouse, UniProt Q8C3J5 1-1828)
T1 construct: Expressed in 293T cells from PcDNA/His max vector and tested in cell lysate by co-immunoprecipitation; also called Hch; mouse DOCK2

[2] = biological target: T2, Tiam1 with HA tag at its C terminus (PCI Tiam1-HA) (mouse, UniProt Q60610 1-1591, limits assumed)
T2 construct: Expressed in 293T cells from the PCI vector; also called mouse Tiam1
T2 sequence (Q60610 other isoform, or with tags, fused parts or gaps limits assumed): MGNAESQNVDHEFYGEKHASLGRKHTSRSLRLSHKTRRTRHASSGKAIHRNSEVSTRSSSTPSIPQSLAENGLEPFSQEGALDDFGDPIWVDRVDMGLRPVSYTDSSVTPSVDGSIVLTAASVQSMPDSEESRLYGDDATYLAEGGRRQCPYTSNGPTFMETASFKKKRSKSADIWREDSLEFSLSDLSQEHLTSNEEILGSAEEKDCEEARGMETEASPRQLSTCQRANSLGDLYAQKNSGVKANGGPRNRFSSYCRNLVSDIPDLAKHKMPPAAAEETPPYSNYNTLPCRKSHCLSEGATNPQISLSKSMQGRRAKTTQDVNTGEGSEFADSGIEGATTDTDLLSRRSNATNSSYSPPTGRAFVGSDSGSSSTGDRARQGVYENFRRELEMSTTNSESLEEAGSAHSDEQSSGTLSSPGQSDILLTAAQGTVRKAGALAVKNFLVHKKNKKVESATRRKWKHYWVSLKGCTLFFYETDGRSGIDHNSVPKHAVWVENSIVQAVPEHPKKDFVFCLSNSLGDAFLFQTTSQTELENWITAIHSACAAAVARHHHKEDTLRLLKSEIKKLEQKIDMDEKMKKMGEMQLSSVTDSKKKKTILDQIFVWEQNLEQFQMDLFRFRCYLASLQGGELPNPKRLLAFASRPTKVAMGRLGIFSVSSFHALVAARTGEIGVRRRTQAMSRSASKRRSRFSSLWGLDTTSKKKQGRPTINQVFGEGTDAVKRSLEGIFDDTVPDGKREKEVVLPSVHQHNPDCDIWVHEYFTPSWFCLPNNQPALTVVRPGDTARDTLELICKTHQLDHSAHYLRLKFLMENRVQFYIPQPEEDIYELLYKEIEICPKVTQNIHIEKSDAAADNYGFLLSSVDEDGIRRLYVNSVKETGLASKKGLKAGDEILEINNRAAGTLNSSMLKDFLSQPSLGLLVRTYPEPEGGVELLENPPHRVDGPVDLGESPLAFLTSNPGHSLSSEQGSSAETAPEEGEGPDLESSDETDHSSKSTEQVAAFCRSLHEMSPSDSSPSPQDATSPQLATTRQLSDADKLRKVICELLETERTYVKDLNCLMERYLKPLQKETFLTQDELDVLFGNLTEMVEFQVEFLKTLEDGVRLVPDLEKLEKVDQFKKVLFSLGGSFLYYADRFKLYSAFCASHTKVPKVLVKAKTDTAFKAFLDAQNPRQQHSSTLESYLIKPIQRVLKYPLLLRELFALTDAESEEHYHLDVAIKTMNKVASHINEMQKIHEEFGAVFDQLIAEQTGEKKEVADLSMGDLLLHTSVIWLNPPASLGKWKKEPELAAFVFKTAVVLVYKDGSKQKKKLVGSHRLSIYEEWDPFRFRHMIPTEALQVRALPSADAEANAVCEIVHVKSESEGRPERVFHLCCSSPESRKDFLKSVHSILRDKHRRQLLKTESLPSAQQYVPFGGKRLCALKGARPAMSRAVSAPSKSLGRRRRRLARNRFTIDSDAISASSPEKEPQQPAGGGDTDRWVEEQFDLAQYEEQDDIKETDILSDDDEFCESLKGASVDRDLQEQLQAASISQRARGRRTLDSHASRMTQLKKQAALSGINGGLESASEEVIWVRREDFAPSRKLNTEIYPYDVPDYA

DOCK2 SH3 mutant G32E-HA = biological target: T3, DOCK2 SH3 mutant G32E-HA (mouse, UniProt Q8C3J5 1-1828)
T3 construct: Glycine at position 32 of DOCK2 is substituted to glutamic acid; HA tag at the C terminus; Expressed in 293T cells; also called PcDNA G32E-HA
T3 sequence (Q8C3J5 other isoform, or with tags, fused parts or gaps G32E G32E limits assumed): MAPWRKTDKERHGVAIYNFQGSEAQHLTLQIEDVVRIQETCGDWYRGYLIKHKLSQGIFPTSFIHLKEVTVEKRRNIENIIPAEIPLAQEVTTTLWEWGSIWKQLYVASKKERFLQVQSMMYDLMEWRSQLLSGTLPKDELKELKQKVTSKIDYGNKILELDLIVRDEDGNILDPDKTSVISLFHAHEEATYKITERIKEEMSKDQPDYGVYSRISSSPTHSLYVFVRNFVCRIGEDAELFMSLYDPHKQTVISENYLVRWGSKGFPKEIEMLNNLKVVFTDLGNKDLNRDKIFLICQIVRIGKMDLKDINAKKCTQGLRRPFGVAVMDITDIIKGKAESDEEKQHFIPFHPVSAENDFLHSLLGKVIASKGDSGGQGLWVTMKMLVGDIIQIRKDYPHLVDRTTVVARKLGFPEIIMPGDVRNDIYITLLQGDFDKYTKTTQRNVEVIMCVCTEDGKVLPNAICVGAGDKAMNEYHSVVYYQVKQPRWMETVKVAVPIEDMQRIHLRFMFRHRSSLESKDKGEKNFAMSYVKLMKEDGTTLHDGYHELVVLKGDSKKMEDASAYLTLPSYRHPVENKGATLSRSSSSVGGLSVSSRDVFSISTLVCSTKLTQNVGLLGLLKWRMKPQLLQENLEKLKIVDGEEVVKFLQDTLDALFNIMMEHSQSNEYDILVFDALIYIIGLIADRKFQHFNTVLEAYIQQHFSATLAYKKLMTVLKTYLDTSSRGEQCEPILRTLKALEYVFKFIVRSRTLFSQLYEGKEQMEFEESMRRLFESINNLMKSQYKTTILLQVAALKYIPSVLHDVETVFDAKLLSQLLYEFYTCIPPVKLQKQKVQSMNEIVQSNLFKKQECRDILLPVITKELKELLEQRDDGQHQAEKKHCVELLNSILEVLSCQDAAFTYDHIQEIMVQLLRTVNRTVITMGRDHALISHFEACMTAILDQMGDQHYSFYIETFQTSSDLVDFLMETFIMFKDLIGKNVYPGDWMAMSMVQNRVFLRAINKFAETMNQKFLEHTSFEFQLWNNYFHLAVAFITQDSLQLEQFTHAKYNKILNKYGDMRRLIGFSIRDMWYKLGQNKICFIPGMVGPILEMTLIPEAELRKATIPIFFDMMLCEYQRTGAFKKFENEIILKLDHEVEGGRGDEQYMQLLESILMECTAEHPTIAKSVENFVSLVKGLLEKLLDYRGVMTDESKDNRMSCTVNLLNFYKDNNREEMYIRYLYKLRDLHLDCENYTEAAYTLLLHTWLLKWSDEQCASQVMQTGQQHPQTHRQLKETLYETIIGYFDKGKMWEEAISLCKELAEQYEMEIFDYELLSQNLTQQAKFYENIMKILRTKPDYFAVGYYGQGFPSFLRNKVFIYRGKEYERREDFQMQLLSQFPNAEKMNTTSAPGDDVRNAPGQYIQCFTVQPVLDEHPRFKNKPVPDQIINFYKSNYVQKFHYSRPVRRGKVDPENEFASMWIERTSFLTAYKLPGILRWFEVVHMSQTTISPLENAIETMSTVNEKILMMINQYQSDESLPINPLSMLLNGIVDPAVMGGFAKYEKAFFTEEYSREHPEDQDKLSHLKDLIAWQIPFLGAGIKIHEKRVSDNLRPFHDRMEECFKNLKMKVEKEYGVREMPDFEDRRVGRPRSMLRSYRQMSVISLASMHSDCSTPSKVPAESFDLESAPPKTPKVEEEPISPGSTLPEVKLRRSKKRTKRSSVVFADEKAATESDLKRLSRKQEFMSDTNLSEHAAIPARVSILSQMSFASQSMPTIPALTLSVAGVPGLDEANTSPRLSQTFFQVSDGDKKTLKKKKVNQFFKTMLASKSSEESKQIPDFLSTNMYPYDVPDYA

DOCK2 SH3 mutant P60E-HA = biological target: T4, DOCK2 SH3 mutant P60E-HA (mouse, UniProt Q8C3J5 1-1828)
T4 construct: Proline at position 60 of DOCK2 is substituted to glutamic acid; HA tag at the C terminus; Expressed in 293T cells; also called PcDNA P60E-HA
T4 sequence (Q8C3J5 other isoform, or with tags, fused parts or gaps P60E P60E limits assumed): as the sequence (Q8C3J5 other isoform, or with tags, fused parts or gaps G32E G32E limits assumed) above, with E32G, P60E counted along it

[3] = biological target: T5, DOCK2ΔN-HA (amino acid residue 505-1828 of DOCK2, HA tag at the C terminus) (mouse, UniProt Q8C3J5 505-1828)
T5 construct: Expressed in 293T cells; also called PcDNA DOCK2ΔN-HA
T5 sequence (Q8C3J5 other isoform, or with tags, fused parts or gaps mutant): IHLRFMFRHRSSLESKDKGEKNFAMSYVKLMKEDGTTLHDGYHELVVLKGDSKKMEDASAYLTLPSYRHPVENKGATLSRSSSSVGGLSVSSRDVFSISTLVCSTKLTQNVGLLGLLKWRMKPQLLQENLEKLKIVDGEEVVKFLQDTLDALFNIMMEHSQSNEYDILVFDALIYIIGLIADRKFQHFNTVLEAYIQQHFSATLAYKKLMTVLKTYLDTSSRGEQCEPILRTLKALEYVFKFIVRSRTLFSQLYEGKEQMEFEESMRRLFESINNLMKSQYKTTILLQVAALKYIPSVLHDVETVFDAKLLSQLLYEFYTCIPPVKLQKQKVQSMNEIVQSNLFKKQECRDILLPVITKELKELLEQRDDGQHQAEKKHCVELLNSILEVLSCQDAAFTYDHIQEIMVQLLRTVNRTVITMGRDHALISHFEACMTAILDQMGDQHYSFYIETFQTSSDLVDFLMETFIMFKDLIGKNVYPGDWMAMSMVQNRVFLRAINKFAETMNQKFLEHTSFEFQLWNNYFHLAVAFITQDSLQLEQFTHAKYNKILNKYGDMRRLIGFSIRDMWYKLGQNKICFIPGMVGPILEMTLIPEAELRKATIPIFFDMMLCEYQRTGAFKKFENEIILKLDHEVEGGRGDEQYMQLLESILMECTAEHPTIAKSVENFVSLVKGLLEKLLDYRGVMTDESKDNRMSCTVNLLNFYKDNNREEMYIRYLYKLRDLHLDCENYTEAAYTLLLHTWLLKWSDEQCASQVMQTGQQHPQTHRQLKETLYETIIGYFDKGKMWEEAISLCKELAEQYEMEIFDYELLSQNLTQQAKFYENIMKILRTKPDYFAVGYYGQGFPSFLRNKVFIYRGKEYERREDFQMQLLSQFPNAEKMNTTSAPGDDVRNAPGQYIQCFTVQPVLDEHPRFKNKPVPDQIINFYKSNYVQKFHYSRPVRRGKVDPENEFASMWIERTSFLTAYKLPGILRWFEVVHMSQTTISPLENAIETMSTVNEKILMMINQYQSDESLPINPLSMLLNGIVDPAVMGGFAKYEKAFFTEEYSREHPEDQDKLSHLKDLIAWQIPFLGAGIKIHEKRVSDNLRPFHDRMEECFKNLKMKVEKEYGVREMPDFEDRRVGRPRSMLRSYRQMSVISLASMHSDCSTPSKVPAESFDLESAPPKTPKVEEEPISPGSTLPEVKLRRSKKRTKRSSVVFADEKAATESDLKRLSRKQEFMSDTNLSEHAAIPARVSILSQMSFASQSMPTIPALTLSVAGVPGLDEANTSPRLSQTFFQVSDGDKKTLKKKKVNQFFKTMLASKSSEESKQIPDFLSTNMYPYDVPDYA

DOCK2 SH3 mutant F63E-HA = biological target: T6, DOCK2 SH3 mutant F63E-HA (mouse, UniProt Q8C3J5 1-1828)
T6 construct: Phenylalanine at position 63 of DOCK2 is substituted to glutamic acid; HA tag at the C terminus; Expressed in 293T cells; also called PcDNA F63E-HA
T6 sequence (Q8C3J5 other isoform, or with tags, fused parts or gaps F63E F63E limits assumed): as the sequence (Q8C3J5 other isoform, or with tags, fused parts or gaps G32E G32E limits assumed) above, with E32G, F63E counted along it

T1 sequence (Q8C3J5 other isoform, or with tags, fused parts or gaps limits assumed): as the sequence (Q8C3J5 other isoform, or with tags, fused parts or gaps G32E G32E limits assumed) above, with E32G counted along it

B1: ELMO1-del10-V5 (amino acid residues 1-613 of ELMO1) (other)
chain: MPPPSDIVKVAIEWPGAYPKLMEIDQKKPLSAIIKEVCDGWSLANHEYFALQHADSSNFYITEKNRNEIKNGTILRLTTSPAQNAQQLHERIQSSSMDAKLEALKDLASLSRDVTFAQEFINLDGISLLTQMVESGTERYQKLQKIMKPCFGDMLSFTLTAFVELMDHGIVSWDTFSVAFIKKIASFVNKSAIDISILQRSLAILESMVLNSHDLYQKVAQEITIGQLIPHLQGTDQEIQTYTIAVINALFLKAPDERRQEMANILAQKQLRYIILTHVIRAQRAINNEMAHQLYVLQVLTFNLLEDRMMTKMDPQDQAQRDIIFELRRIAFDAESEPNNSSGSMEKRKSMYTRDYKKLGFINHVNPAMDFTQTPPGMLALDNMLYFAKHHQDAYIRIVLENSSREDKHECPFGRSSIELTKMLCEILKVGELPSETCNDFHPMFFTHDRSFEEFFCICIQLLNKTWKEMRATSEDFNKVMQVVKEQVMRALTTKPSSLDQFKSKLQNLSYTEILKIRQSERMNQEDFQSRPILELKEKIQPEILELIKQQRLNRLVEGTCFRKLNARRRQDKFWYCRLSPNHKVLHYGDLEESPQGEVPHDSLQDKLPVADI
notes: Expressed in 293T cells; also called PcDNA ELMO1-del10-V5; PcDNA ELMO1-del10; not shown: V5 (and His) tag from the PcDNA V5His vector
[1]
  binding result: no binding

B2: ELMO1-del1-V5 (amino acid residues 147-727 of ELMO1) (other)
chain: MKPCFGDMLSFTLTAFVELMDHGIVSWDTFSVAFIKKIASFVNKSAIDISILQRSLAILESMVLNSHDLYQKVAQEITIGQLIPHLQGTDQEIQTYTIAVINALFLKAPDERRQEMANILAQKQLRYIILTHVIRAQRAINNEMAHQLYVLQVLTFNLLEDRMMTKMDPQDQAQRDIIFELRRIAFDAESEPNNSSGSMEKRKSMYTRDYKKLGFINHVNPAMDFTQTPPGMLALDNMLYFAKHHQDAYIRIVLENSSREDKHECPFGRSSIELTKMLCEILKVGELPSETCNDFHPMFFTHDRSFEEFFCICIQLLNKTWKEMRATSEDFNKVMQVVKEQVMRALTTKPSSLDQFKSKLQNLSYTEILKIRQSERMNQEDFQSRPILELKEKIQPEILELIKQQRLNRLVEGTCFRKLNARRRQDKFWYCRLSPNHKVLHYGDLEESPQGEVPHDSLQDKLPVADIKAVVTGKDCPHMKEKGALKQNKEVLELAFSILYDSNCQLNFIAPDKHEYCIWTDGLNALLGKDMMSDLTRNDLDTLLSMEIKLRLLDLENIQIPDAPPPIPKEPSNYDFVYDCN
notes: Expressed in 293T cells; also called ELMO1-dell; PcDNA ELMO1-del1-V5; not shown: V5 (and His) tag from the PcDNA V5His vector
[2]
  binding result: no binding

B3: full length ELMO1 with V5 tag (PcDNA ELMO1-V5) (other)
chain: MPPPSDIVKVAIEWPGAYPKLMEIDQKKPLSAIIKEVCDGWSLANHEYFALQHADSSNFYITEKNRNEIKNGTILRLTTSPAQNAQQLHERIQSSSMDAKLEALKDLASLSRDVTFAQEFINLDGISLLTQMVESGTERYQKLQKIMKPCFGDMLSFTLTAFVELMDHGIVSWDTFSVAFIKKIASFVNKSAIDISILQRSLAILESMVLNSHDLYQKVAQEITIGQLIPHLQGTDQEIQTYTIAVINALFLKAPDERRQEMANILAQKQLRYIILTHVIRAQRAINNEMAHQLYVLQVLTFNLLEDRMMTKMDPQDQAQRDIIFELRRIAFDAESEPNNSSGSMEKRKSMYTRDYKKLGFINHVNPAMDFTQTPPGMLALDNMLYFAKHHQDAYIRIVLENSSREDKHECPFGRSSIELTKMLCEILKVGELPSETCNDFHPMFFTHDRSFEEFFCICIQLLNKTWKEMRATSEDFNKVMQVVKEQVMRALTTKPSSLDQFKSKLQNLSYTEILKIRQSERMNQEDFQSRPILELKEKIQPEILELIKQQRLNRLVEGTCFRKLNARRRQDKFWYCRLSPNHKVLHYGDLEESPQGEVPHDSLQDKLPVADIKAVVTGKDCPHMKEKGALKQNKEVLELAFSILYDSNCQLNFIAPDKHEYCIWTDGLNALLGKDMMSDLTRNDLDTLLSMEIKLRLLDLENIQIPDAPPPIPKEPSNYDFVYDCN
notes: Expressed in 293T cells; also called mouse ELMO1; not shown: V5 (and His) tag from the PcDNA V5-His vector
DOCK2 SH3 mutant G32E-HA
  binding result: no binding
DOCK2 SH3 mutant P60E-HA
  binding result: no binding
[3]
  binding result: no binding
DOCK2 SH3 mutant F63E-HA
  binding result: no binding

B4: ELMO1-del8-V5 (amino acid residues 345-727 of ELMO1) (other)
chain: MEKRKSMYTRDYKKLGFINHVNPAMDFTQTPPGMLALDNMLYFAKHHQDAYIRIVLENSSREDKHECPFGRSSIELTKMLCEILKVGELPSETCNDFHPMFFTHDRSFEEFFCICIQLLNKTWKEMRATSEDFNKVMQVVKEQVMRALTTKPSSLDQFKSKLQNLSYTEILKIRQSERMNQEDFQSRPILELKEKIQPEILELIKQQRLNRLVEGTCFRKLNARRRQDKFWYCRLSPNHKVLHYGDLEESPQGEVPHDSLQDKLPVADIKAVVTGKDCPHMKEKGALKQNKEVLELAFSILYDSNCQLNFIAPDKHEYCIWTDGLNALLGKDMMSDLTRNDLDTLLSMEIKLRLLDLENIQIPDAPPPIPKEPSNYDFVYDCN
notes: Expressed in 293T cells; also called PcDNA ELMO1-del8-V5; not shown: V5 (and His) tag from the PcDNA V5His vector
[2]
  binding result: no binding
